Biological target: T1, S-TNF, human TNFα fusion protein with an N-terminal S-Tag (human, UniProt P01375 77-233)
T1 construct: Made, expressed and purified by the applicants; not shown: 15 amino acid S-Tag peptide (Novagen)
Assay: indirect ELISA: sp55 from conditioned medium captured on Ni-NTA wells, S-TNF at 1 μg/mL, S-protein-HRP detection, absorbance at 370 nm

T1 sequence (P01375 77-233): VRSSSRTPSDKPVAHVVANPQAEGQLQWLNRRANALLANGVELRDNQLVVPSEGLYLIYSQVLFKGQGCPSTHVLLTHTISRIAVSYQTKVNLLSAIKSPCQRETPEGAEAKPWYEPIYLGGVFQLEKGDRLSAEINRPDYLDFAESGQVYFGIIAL

fold elevation in S-TNF binding over non-specific binding in control samples: 3 fold
B1: sp55, soluble TNF receptor p55: ecto-domain of human TNFR-1 (residues 30-211) with C-terminal myc and His6 tags (receptor)
chain: DAAQPARRAVRSLVPHLGDREKRDSVCPQGKYIHPQNNSICCTKCHKGTYLYNDCPGPGQDTDCRECESGSFTASENHLRHCLSCSKCRKEMGQVEISSCTVDRDTVCGCRKNQYRHYWSENLFQCFNCSLCLNGTVHLSCQEKQNTVCTCHAGFFLRENECVSCSNCKKSLECTKLCLPQIENVKGTEDSGTTRGGPEQKLISEEDLNSAVDHHHHHH
notes: Used as conditioned medium of transfected 293T cells; also called p55FL-myc-his; p55L

— patent WO2007030708A2 (dated 2007)
